Data from article PMC314469, “Protein Interaction Networks by Proteome Peptide Scanning” (PLoS Biology, 2004).

T1: Rvs167 SH3 (RV167_YEAST), P39743
T1 chain: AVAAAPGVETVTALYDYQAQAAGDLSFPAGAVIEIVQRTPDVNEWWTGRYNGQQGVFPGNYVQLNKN

T2: Boi2 SH3 (BOI2_YEAST), P39969
T2 chain: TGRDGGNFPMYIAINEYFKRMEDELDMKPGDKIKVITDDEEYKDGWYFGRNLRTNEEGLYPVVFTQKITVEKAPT

T3: Boi1 SH3 (BOI1_YEAST), P38041
T3 chain: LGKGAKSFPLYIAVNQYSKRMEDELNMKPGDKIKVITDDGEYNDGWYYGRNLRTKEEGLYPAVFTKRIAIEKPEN

T4: Yfr024 SH3 (LSB3_YEAST), P43603
T4 chain: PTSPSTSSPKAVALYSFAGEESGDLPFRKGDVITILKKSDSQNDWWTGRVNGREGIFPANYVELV

T5: Myo5 SH3 (MYO5_YEAST), Q04439
T5 chain: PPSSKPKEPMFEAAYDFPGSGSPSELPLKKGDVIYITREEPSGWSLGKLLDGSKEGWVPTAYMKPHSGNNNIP

T6: Yhr016c SH3 (YSC84_YEAST), P32793
T6 chain: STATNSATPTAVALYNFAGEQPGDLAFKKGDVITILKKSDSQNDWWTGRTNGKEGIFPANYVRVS

B1: YMR140W 298-311 (peptide)
chain: VQIKRADPHFPHDE
B2: YAL040C 535-548 (peptide)
chain: VRSKRLFPVRPMAT
B3: YAR007C 257-270 (peptide)
chain: VSKAKLQPAKPQFT
B4: YMR118C 67-80 (peptide)
chain: VSQRKKRPISPHLT
B5: YDL230W 193-206 (peptide)
chain: VTDIKLTPTDPLVG
B6: YOR269W 158-171 (peptide)
chain: VTSVKLHPNLPIVF
B7: YKL048C 113-126 (peptide)
chain: VVAVKIIPKKPWNA
B8: YER120W 161-174 (peptide)
chain: VVNEKEVPAEPETQ
B9: YPR171W 231-244 (peptide)
chain: VVPERVKPAPPVSR
B10: YAL060W 292-305 (peptide)
chain: VWGPKPVPFQPMDV
B11: YFR032C 169-182 (peptide)
chain: VYRRKSIPFAPHQI
B12: YJR113C 98-111 (peptide)
chain: WEALKSVPIPPRKN
B13: YMR227C 326-339 (peptide)
chain: WENFKEEPGEPLSR

Columns and labels:
Assay in all cases: SPOT array
[1] = molecular target: T1, Rvs167 SH3 (RV167_YEAST), P39743
[2] = molecular target: T2, Boi2 SH3 (BOI2_YEAST), P39969
[3] = molecular target: T3, Boi1 SH3 (BOI1_YEAST), P38041
[4] = molecular target: T4, Yfr024 SH3 (LSB3_YEAST), P43603
[5] = molecular target: T5, Myo5 SH3 (MYO5_YEAST), Q04439
[6] = molecular target: Sho1 SH3 (SHO1_YEAST), P40073
Sho1 SH3 (SHO1_YEAST), P40073, sequence (P40073 295-366): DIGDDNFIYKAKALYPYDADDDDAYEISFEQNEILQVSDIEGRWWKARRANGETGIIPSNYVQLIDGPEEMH

[7] = molecular target: T6, Yhr016c SH3 (YSC84_YEAST), P32793

Binder | normalised SPOT signal, Boehringer light units (BLU); mean over the file's lines of this peptide [1] | normalised SPOT signal, Boehringer light units (BLU); mean over the file's lines of this peptide [2] | normalised SPOT signal, Boehringer light units (BLU); mean over the file's lines of this peptide [3] | normalised SPOT signal, Boehringer light units (BLU); mean over the file's lines of this peptide [4] | normalised SPOT signal, Boehringer light units (BLU); mean over the file's lines of this peptide [5] | normalised SPOT signal, Boehringer light units (BLU); mean over the file's lines of this peptide [6] | normalised SPOT signal, Boehringer light units (BLU); mean over the file's lines of this peptide [7]
B1 | 63.1 | 20 | 33.5 | 44.1 | 132 | 30.6 | 41.5
B2 | 309 | 0 | 362 | 2610 | 504 | 244 | 236
B3 | 28.5 | 21.4 | 657 | 96.3 | 252 | 61.2 | 50.6
B4 | 31 | 21.2 | 216 | 299 | 814 | 59.1 | 10.3
B5 | 31 | 0.1 | 71.3 | 45.9 | 852 | 47.9 | 10.3
B6 | 74 | 10.5 | 126 | 93.9 | 137 | 58.2 | 8.2
B7 | 47.8 | 30.9 | 85.7 | 42 | 115 | 66.9 | 14.7
B8 | 12.9 | 34.2 | 130 | 33 | 100 | 28.5 | 12.7
B9 | 53.2 | 51.5 | 2710 | 479 | 150 | 43 | 88
B10 | 112 | 247 | 479 | 1000 | 96.9 | 24.2 | 257
B11 | 138 | 47 | 2560 | 183 | 383 | 135 | 70.7
B12 | 2780 | 1740 | 52300 | 9510 | 379 | 3290 | 1880
B13 | 82 | 81.2 | 104 | 2790 | 96.8 | 38.9 | 140
